The results in this text go back to patent publication US20230106715A1 (BIOSION, published 2023).

First the molecules themselves.
B1: B2D7H7A3C1 (antibody, V domains shown)
VH: QVQLQQSGAELVRPGTSVQMSCKAAGYTFTNYWIGWVKQRPGHGLEWVGDIHPGINYTNNNEKFRGKATLTADTSSNTAYMQLRGLTSDDSAIYYCARVDYDYDGSYIMDYWGQGTSVTVSS
VL: QIVLSQSPALLSASPGEKVTMTCRASSSVSYMYWYQQKPGSSPKPWIYATSNLTSGVPARFSGSGSGTSYSLTISRVEAEDAATYFCQQWNSKPWTFGGGSKLEIR
notes: Mouse monoclonal antibody from hybridoma; also called mouse B2D7H7A3C1
B2: B2G12H3E8 (antibody, V domains shown)
VH: B1 VH with Q5K, A25V, N77S
VL: B1 VL
notes: Mouse monoclonal antibody from hybridoma; also called mouse B2G12H3E8
B3: B2H2H1H7 (antibody, V domains shown)
VH: B1 VH with N77S
VL: B1 VL with V3I, K102R
notes: Mouse monoclonal antibody from hybridoma; also called mouse B2H2H1H7; B2H2H1A7
B4: anti-Siglec15 benchmark (ch5G12) (antibody, human IgG1, kappa, V domains shown)
VH: QVQLQQPGAELVKPGASVKMSCKASGYTFTSYWITWVIQRPGQGLEWIGDIYCGSDTMHYNEKFKNKATLTVDTSSSTAYMQLSSLTSEDSAVYYCARWWDYGSSYDYFDYWGQGTTLTVSS
VL: DIKMTQSPSSMYASLGERVTITCKASQDINSYLSWFQQKPGKSPKTLIYRANRLVDGVPSRFSGSGSGQDYSLTISSLEYEDMGIYYCLQYDEFPYTFGGGTKLEIKR
notes: ch5G12 (US 20190202912A1); also called BM; Siglec15-ch5G9
B5: A2A5C7E8 (antibody, V domains shown)
VH: EVQLVQSGAEVKKPGESLRISCKGSGYSFTTYWISWVRQMPGKGLEWMGLIDPSDSYTNYSPSFQGHVTISTDKSISTAYLQWSSLKASDTAMYYCARGGYYGSEEDYWGQGTLVTVSS
VL: EIVLTQSPGTLSLSPGERATLSCRASQSVSSSRLAWFQQKSGQAPRLLIFDASSRATGIPDRFSGSGSGTDFTLTISRLEPEDFAVYYCQQYGSSPRTFGQGTKVEFK
notes: Fully human antibody from transgenic mouse hybridoma; also called A2A5C7E8-1
B6: A2A5C7E8-2 (antibody, human IgG1, kappa, V domains shown)
VH: B5 VH with D55E
VL: EIVLTQSPGTLSLSPGERATLSCRASQSVSSSRLAWFQQKSGQAPRLLIFDASSRATGIPDRFSGSGSGTDFTLTISRLEPEDFAVYYCQQYGSSPRTFGQGTKVEFKR
notes: Variant of A2A5C7E8 modified in VH CDR2 (X1 = E)
B7: A2A5C7E8-3 (antibody, human IgG1, kappa, V domains shown)
VH: B5 VH with Q65K
VL: B6 VL
notes: Variant of A2A5C7E8 modified in VH CDR2 (X2 = K)

Numbering of substitutions follows the chain as printed.

The target of the first test is T1, mouse Siglec15-his protein (mouse).
T1 construct: In house made
T1 chain: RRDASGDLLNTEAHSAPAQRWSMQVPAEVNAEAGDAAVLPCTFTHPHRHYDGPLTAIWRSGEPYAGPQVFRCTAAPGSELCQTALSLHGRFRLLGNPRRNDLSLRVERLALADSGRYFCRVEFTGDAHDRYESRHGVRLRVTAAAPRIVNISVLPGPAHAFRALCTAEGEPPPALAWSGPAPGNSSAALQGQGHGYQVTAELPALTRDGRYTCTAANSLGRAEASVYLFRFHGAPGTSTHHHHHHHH
Description: indirect ELISA on coated mouse Siglec15-his.
For B1, the EC50 stood at 0.994 nM.
In turn, B2 had an EC50 of 0.408 nM.
In turn, B3 displayed an EC50 of 0.651 nM.
As to B4, the EC50 was 0.211 nM.

In a further test the target is T2, human Siglec15-Fc protein (human).
T2 construct: In house made; also called recombinant human Siglec15 protein with human IgG1 Fc at the C-terminus
T2 sequence (chain, as listed by the source limits assumed): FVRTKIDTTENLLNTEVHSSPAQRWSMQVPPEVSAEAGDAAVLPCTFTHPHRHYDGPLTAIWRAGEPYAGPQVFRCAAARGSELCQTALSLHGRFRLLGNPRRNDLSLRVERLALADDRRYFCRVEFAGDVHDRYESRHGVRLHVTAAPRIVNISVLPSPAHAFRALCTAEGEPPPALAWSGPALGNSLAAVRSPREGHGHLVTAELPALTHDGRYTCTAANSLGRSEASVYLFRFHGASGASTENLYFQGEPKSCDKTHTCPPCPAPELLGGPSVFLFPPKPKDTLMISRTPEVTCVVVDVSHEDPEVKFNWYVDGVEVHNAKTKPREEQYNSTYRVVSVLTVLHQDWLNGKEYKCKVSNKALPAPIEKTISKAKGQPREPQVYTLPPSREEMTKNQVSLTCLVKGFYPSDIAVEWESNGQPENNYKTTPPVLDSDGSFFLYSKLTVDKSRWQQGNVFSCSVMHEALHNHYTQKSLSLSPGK
The test is described as follows: competitive ELISA: biotin-labeled human Siglec15-Fc in solution, competitor coated benchmark. The protocol:
The abilities of the anti-Siglec15 antibodies of the disclosure to block benchmark-human Siglec15 binding were measured in a competitive ELISA assay. Briefly, the benchmark was coated on 96-well micro plates at 2 μg/mL in PBS, 100 μl per well, and incubated for 2 hours at 37° C. Then plates were washed once with wash buffer, and blocked with 5% w/v non-fatty milk in PBST overnight at 4° C. The next day, the anti-Siglec15 antibodies of the disclosure or controls were diluted with biotin labeled human Siglec15-Fc protein (prepared in-house with SEQ ID NO: 19, 37 ng/ml in PBST with 2.5% w/v non-fatty milk), starting at 80 nM with a 4-fold serial dilution, and incubated at room temperature for 40 minutes. After plate washing 4 times, the antibody/Siglec15-Fc mixtures were added to benchmark coated plates, 100 μl per well. After incubation at 37° C. for 40 minutes, plates were washed 4 times again using wash buffer. Then the plates were added and incubated with 100 μl/well streptavidin conjugated HRP for 40 minutes at 37° C. Plates were washed again using wash buffer. Finally, TMB was added and the reaction was stopped using 1M H₂SO₄, and the absorbance of each well was read on a microplate reader using dual wavelength mode with 450 nm for TMB and 630 nm as the reference wavelength, then the OD (450-630) values were plotted against antibody concentration. Data was analyzed using Graphpad Prism software and IC₅₀ values were reported.
A general note: An ELISA detects its analyte on a solid surface through an enzyme-linked reagent.
B5: the IC50 was determined as 0.0387 nM.
As to B6, the IC50 came to 0.0178 nM.
On to B7, for which the IC50 came to 0.0357 nM.
The same measure, in the same setting: with B4 the figure was 0.229 nM.

A further test concerns the target T3, recombinant human Siglec15-his protein (human, UniProt Q6ZMC9 20-263).
T3 construct: In house made; Biotin-labeled in the capture ELISA
T3 sequence: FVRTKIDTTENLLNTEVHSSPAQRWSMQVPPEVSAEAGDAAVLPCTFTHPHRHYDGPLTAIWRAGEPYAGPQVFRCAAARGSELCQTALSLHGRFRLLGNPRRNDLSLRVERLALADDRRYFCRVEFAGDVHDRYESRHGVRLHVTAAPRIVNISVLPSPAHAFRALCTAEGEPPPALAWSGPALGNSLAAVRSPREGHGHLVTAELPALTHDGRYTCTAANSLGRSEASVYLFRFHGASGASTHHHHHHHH
Description: capture ELISA, captured antibody, biotin-labeled human Siglec15-his in solution. The procedure:
Briefly, 96-well plates were coated with 100 μl of 2 μg/ml AffiniPure Goat Anti-Human IgG F(ab′)₂ fragment specific (Jackson Immuno Research, Cat #109-005-097) in PBS for 2 hours at 37° C. Plates were washed once with wash buffer (PBS+0.05% v/v Tween-20, PBST) and then blocked with 200 μl blocking buffer (5% w/v non-fatty milk in PBST) overnight at 4° C. Plates were washed 4 times and respectively incubated with 100 μl serially diluted anti-Siglec15 antibodies of the disclosure, the benchmark and hIgG (human immunoglobulin (pH4) for intravenous injection, Hualan Biological Engineering Inc.), 5-fold dilution in 2.5% w/v non-fatty milk in PBST starting at 66.7 nM, for 40 minutes at 37° C., and then washed 4 times again. Plates containing captured antibodies were incubated with 100 μl biotin-labeled human Siglec15-his protein (in house made with SEQ ID NO: 20, 145 ng/ml in 2.5% w/v non-fatty milk in PBST) for 40 minutes at 37° C., washed 4 times, and incubated with streptavidin conjugated HRP (1:10000 dilution in PBST, Jackson Immuno Research, Cat #016-030-084, 100 μl/well) for 40 minutes at 37° C. After a final wash, plates were incubated with 100 μl/well ELISA substrate TMB (Innoreagents, Cat #TMB-S-002). The reaction was stopped in 4 minutes at room temperature with 50 μl/well 1M H₂SO₄, and the absorbance of each well was read on a microplate reader using dual wavelength mode with 450 nm for TMB and 630 nm as the reference wavelength, then the OD (450-630) values were plotted against antibody concentration. Data was analyzed using Graphpad Prism software and EC₅₀ values were reported.
As to B1, the EC50 stood at 0.101 nM.
Consider B2, for which the EC50 turned out to be 0.0859 nM.
As for B3, the EC50 worked out at 0.0937 nM.
On the same count and under the same terms, the same measure for B4: 1.64 nM.

Another test deals with T4, cynomolgus monkey Siglec15-his protein (cynomolgus monkey).
T4 construct: In house made; also called Cynomolgus Siglec15-his; cynomolgus Siglec15
T4 chain: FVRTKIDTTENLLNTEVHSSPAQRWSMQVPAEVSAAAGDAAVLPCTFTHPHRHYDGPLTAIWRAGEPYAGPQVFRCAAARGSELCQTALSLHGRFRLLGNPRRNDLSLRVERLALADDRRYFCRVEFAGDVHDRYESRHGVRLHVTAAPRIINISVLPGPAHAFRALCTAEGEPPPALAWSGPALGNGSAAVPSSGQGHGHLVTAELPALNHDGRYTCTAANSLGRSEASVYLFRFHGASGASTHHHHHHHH
The test is described as follows: indirect ELISA on coated cynomolgus Siglec15-his. The protocol:
The anti-Siglec15 antibodies' cross-reactions to cynomolgus or mouse Siglec15 proteins were measured. Briefly, 96-well micro plates were coated with 100 μl of 2 μg/ml cynomolgus Siglec15-his protein (in house made with SEQ ID NO: 21), or 2 μg/ml mouse Siglec15-his protein (in house made with SEQ ID NO: 22) in carbonate/bicarbonate buffer (pH 9.6) for 2 hours at 37° C. ELISA plates were washed once with wash buffer (PBS+0.05% v/v Tween-20, PBST) and then blocked with 200 μl/well blocking buffer (5% w/v non-fatty milk in PBST) overnight at 4° C. Plates were washed 4 times and incubated with 100 μl serially diluted anti-Siglec15 antibodies of the disclosure or controls (starting at 66.7 nM, 5-fold serial dilution in PBST with 2.5% w/v non-fatty milk) for 40 minutes at 37° C. ELISA plates were washed 4 times again and incubated with Peroxidase AffiniPure Goat Anti-Human IgG, F(ab)₂ fragment specific (1:5000 dilution in PBST buffer, Jackson Immunoresearch, Cat #109-035-097, 100 μl/well) for 40 minutes at 37° C. After a final wash, plates were incubated with 100 μl/well TMB (Innoreagents, Cat #TMB-S-002). The reaction was stopped 4 minutes later at room temperature with 50 μl 1M H₂SO₄, and the absorbance of each well was read on a microplate reader using dual wavelength mode with 450 nm for TMB and 630 nm as the reference wavelength, then the OD (450-630) values were plotted against antibody concentration. Data was analyzed using Graphpad Prism software and EC₅₀ values were reported.
On to B5, for which the EC50 was found to be 0.136 nM.
Same read-out and setting: the same measure for B6: 0.15 nM; for B7: 0.146 nM; for B4: 0.313 nM.

As a reminder, the EC50 is the concentration at which the effect is half-maximal. As usually defined, the IC50 is the concentration that gives 50% inhibition.
